Reference: paper PMC4632715

Target: FN3 monobody 2C12 (binder of MAP2K5), purified FLAG-tagged protein
Assay: pull-down; 1 pmol each of four purified biotinylated targets spiked into HeLa cell lysate (10 µg), 10 pmol purified FLAG-tagged monobody, 2 h 4 °C; captured on anti-FLAG magnetic beads, RIPA washes; blot probed with streptavidin-IR dye

percent of input pulled down: 33%
B1: mitogen-activated protein kinase kinase 5 (MAP2K5), amino acids 5-108 (domain or fragment)
chain: ALGPFPAMENQVLVIRIKIPNSGAVDWTVHSGPQLLFRDVLDVIGQVLPEATTTAFEYEDEDGDRITVRSDEEMKAMLSYYYSTVMEQQVNGQLIEPLQIFPRA
modifications: biotin (Avitag, in vivo); a non-biotinylated form served as soluble competitor
